Assay results reported in patent US12630600B2 (MEDIMMUNE LIMITED, priority 2022, dated 2026).
Starred links: 1 amine or outer side, 2 acyl side, 3 side chain; linkers in the order of their positions; H or OH if unused. Non-standard residues stand in square brackets, D forms with d. Groups on a side chain read outwards from the residue. Primed or numbered codes have the meaning given here. No end group written: not given here. *: point of attachment. C20 diacid = O=C(O)CCCCCCCCCCCCCCCCCCC(=O)*; C18 diacid = O=C(O)CCCCCCCCCCCCCCCCC(=O)*; γGlu = O=C(O)[C@H](CCC(=O)[*:2])N[*:1]; Stearoyl = CCCCCCCCCCCCCCCCCC(=O)*; Palmitoyl = CCCCCCCCCCCCCCCC(=O)*; αMeF = C[C@](N)(Cc1ccccc1)C(=O)O; Myristoyl = CCCCCCCCCCCCCC(=O)*; (PEG)2 = polyethylene glycol 2; PEG2′ = polyethylene glycol 2; αMeS = C[C@](N)(CO)C(=O)O; AEEA = NCCOCCOCC(=O)O; Aib = CC(C)(N)C(=O)O

B1: Peptide 14 (peptide)
peptide: H[Aib]HGS[αMeF]TSDVSK[αMeF]LDSK([AEEA-AEEA-γGlu-γGlu-C20 diacid])AARD[αMeF]VQ[Aib]IANT-NH2
modifications: N-terminus assumed
SMILES: CC[C@H](C)[C@H](NC(=O)C(C)(C)NC(=O)[C@H](CCC(N)=O)NC(=O)[C@@H](NC(=O)[C@](C)(Cc1ccccc1)NC(=O)[C@H](CC(=O)O)NC(=O)[C@H](CCCNC(=N)N)NC(=O)[C@H](C)NC(=O)[C@H](C)NC(=O)[C@H](CCCCNC(=O)COCCOCCNC(=O)COCCOCCNC(=O)CC[C@H](NC(=O)CC[C@H](NC(=O)CCCCCCCCCCCCCCCCCCC(=O)O)C(=O)O)C(=O)O)NC(=O)[C@H](CO)NC(=O)[C@H](CC(=O)O)NC(=O)[C@H](CC(C)C)NC(=O)[C@](C)(Cc1ccccc1)NC(=O)[C@H](CCCCN)NC(=O)[C@H](CO)NC(=O)[C@@H](NC(=O)[C@H](CC(=O)O)NC(=O)[C@H](CO)NC(=O)[C@@H](NC(=O)[C@](C)(Cc1ccccc1)NC(=O)[C@H](CO)NC(=O)CNC(=O)[C@H](Cc1c[nH]cn1)NC(=O)C(C)(C)NC(=O)[C@@H](N)Cc1c[nH]cn1)[C@@H](C)O)C(C)C)C(C)C)C(=O)N[C@@H](C)C(=O)N[C@@H](CC(N)=O)C(=O)N[C@H](C(N)=O)[C@@H](C)O
B2: Peptide 13 (peptide)
peptide: H[Aib]HGS[αMeF]TSDVSK[αMeF]LDSK([AEEA-AEEA-γGlu-C18 diacid])AARD[αMeF]VQ[Aib]IANT-NH2
modifications: N-terminus assumed
SMILES: CC[C@H](C)[C@H](NC(=O)C(C)(C)NC(=O)[C@H](CCC(N)=O)NC(=O)[C@@H](NC(=O)[C@](C)(Cc1ccccc1)NC(=O)[C@H](CC(=O)O)NC(=O)[C@H](CCCNC(=N)N)NC(=O)[C@H](C)NC(=O)[C@H](C)NC(=O)[C@H](CCCCNC(=O)COCCOCCNC(=O)COCCOCCNC(=O)CC[C@H](NC(=O)CCCCCCCCCCCCCCCCC(=O)O)C(=O)O)NC(=O)[C@H](CO)NC(=O)[C@H](CC(=O)O)NC(=O)[C@H](CC(C)C)NC(=O)[C@](C)(Cc1ccccc1)NC(=O)[C@H](CCCCN)NC(=O)[C@H](CO)NC(=O)[C@@H](NC(=O)[C@H](CC(=O)O)NC(=O)[C@H](CO)NC(=O)[C@@H](NC(=O)[C@](C)(Cc1ccccc1)NC(=O)[C@H](CO)NC(=O)CNC(=O)[C@H](Cc1c[nH]cn1)NC(=O)C(C)(C)NC(=O)[C@@H](N)Cc1c[nH]cn1)[C@@H](C)O)C(C)C)C(C)C)C(=O)N[C@@H](C)C(=O)N[C@@H](CC(N)=O)C(=O)N[C@H](C(N)=O)[C@@H](C)O
B3: Peptide 12 (peptide)
peptide: H[Aib]HGS[αMeF]TSDVSK[αMeF]LDSK([AEEA-AEEA-γGlu-C18 diacid])AARDFVQ[Aib]IANT-NH2
modifications: N-terminus assumed
SMILES: CC[C@H](C)[C@H](NC(=O)C(C)(C)NC(=O)[C@H](CCC(N)=O)NC(=O)[C@@H](NC(=O)[C@H](Cc1ccccc1)NC(=O)[C@H](CC(=O)O)NC(=O)[C@H](CCCNC(=N)N)NC(=O)[C@H](C)NC(=O)[C@H](C)NC(=O)[C@H](CCCCNC(=O)COCCOCCNC(=O)COCCOCCNC(=O)CC[C@H](NC(=O)CCCCCCCCCCCCCCCCC(=O)O)C(=O)O)NC(=O)[C@H](CO)NC(=O)[C@H](CC(=O)O)NC(=O)[C@H](CC(C)C)NC(=O)[C@](C)(Cc1ccccc1)NC(=O)[C@H](CCCCN)NC(=O)[C@H](CO)NC(=O)[C@@H](NC(=O)[C@H](CC(=O)O)NC(=O)[C@H](CO)NC(=O)[C@@H](NC(=O)[C@](C)(Cc1ccccc1)NC(=O)[C@H](CO)NC(=O)CNC(=O)[C@H](Cc1c[nH]cn1)NC(=O)C(C)(C)NC(=O)[C@@H](N)Cc1c[nH]cn1)[C@@H](C)O)C(C)C)C(C)C)C(=O)N[C@@H](C)C(=O)N[C@@H](CC(N)=O)C(=O)N[C@H](C(N)=O)[C@@H](C)O
B4: Peptide 109 (peptide)
peptide: HSQGS[αMeF]TSDVSK(Ac)[Aib]LDSK([AEEA-AEEA-γGlu-C18 diacid])AAQD[αMeF]VQ[Aib]IAN-NH2
modifications: N-terminus assumed
SMILES: CC[C@H](C)[C@H](NC(=O)C(C)(C)NC(=O)[C@H](CCC(N)=O)NC(=O)[C@@H](NC(=O)[C@](C)(Cc1ccccc1)NC(=O)[C@H](CC(=O)O)NC(=O)[C@H](CCC(N)=O)NC(=O)[C@H](C)NC(=O)[C@H](C)NC(=O)[C@H](CCCCNC(=O)COCCOCCNC(=O)COCCOCCNC(=O)CC[C@H](NC(=O)CCCCCCCCCCCCCCCCC(=O)O)C(=O)O)NC(=O)[C@H](CO)NC(=O)[C@H](CC(=O)O)NC(=O)[C@H](CC(C)C)NC(=O)C(C)(C)NC(=O)[C@H](CCCCNC(C)=O)NC(=O)[C@H](CO)NC(=O)[C@@H](NC(=O)[C@H](CC(=O)O)NC(=O)[C@H](CO)NC(=O)[C@@H](NC(=O)[C@](C)(Cc1ccccc1)NC(=O)[C@H](CO)NC(=O)CNC(=O)[C@H](CCC(N)=O)NC(=O)[C@H](CO)NC(=O)[C@@H](N)Cc1c[nH]cn1)[C@@H](C)O)C(C)C)C(C)C)C(=O)N[C@@H](C)C(=O)N[C@@H](CC(N)=O)C(N)=O

Experiments:
human glucagon receptor = human glucagon receptor (human, UniProt P47871); assay: cell-based or functional assay
human GLP-1 receptor = human GLP-1 receptor (human, UniProt P43220); assay: cell-based or functional assay

| Binder | cAMP production, hGluc-R EC50 (pM) (human glucagon receptor) | cAMP production, hGLP-1R EC50 (pM) (human GLP-1 receptor) |
| --- | --- | --- |
| H[Aib]QGS[αMeF]TSDVSKILDSK([(PEG)2-(PEG)2-γGlu-Stearoyl])AAQD[αMeF]VQ[Aib]IINT-NH2 [Peptide 127] | 12.6 pM | 0.998 pM |
| H[αMeS]QGS[αMeF]TSDVSKILDSK([PEG2′-PEG2′-γGlu-γGlu-Palmitoyl])AAQD[αMeF]VQ[Aib]IINT-NH2 [Peptide 131] | 17.8 pM | 0.511 pM |
| HSQGS[αMeF]TSDVSKILDSK([(PEG)2-(PEG)2-γGlu-Myristoyl])AAQD[αMeF]VQ[Aib]IINT-NH2 [Peptide 122] | 0.857 pM | 1.42 pM |
| HSQGS[αMeF]TSDVSKILDSK([(PEG)2-(PEG)2-γGlu-Stearoyl])AAQD[αMeF]VQ[Aib]IINT-NH2 [Peptide 120] | 2.62 pM | 1.81 pM |
| HSQGS[αMeF]TSDVSK(Ac)[Aib]LDSK([(PEG)2-(PEG)2-γGlu-γGlu-Stearoyl])AAQD[αMeF]VQ[Aib]IAN-NH2 [Peptide 110] | 48.5 pM | 0.627 pM |
| HSQGS[αMeF]TSDVSKILDSK([(PEG)2-(PEG)2-γGlu-Palmitoyl])AAQD[αMeF]VQ[Aib]IINT-NH2 [Peptide 121] | 1.2 pM | 1.5 pM |
| HSQGS[αMeF]TSDVSKILDSK([(PEG)2-(PEG)2-γGlu-γGlu-Myristoyl])AAQD[αMeF]VQ[Aib]IINT-NH2 [Peptide 119] | 1.7 pM | 1.39 pM |
| H[Aib]QGS[αMeF]TSDVSKILDSK([(PEG)2-(PEG)2-γGlu-Palmitoyl])AAQD[αMeF]VQ[Aib]IINT-NH2 [Peptide 128] | 4.7 pM | 0.788 pM |
| H[αMeS]QGS[αMeF]TSDVSKILDSK([PEG2′-PEG2′-γGlu-γGlu-Myristoyl])AAQD[αMeF]VQ[Aib]IINT-NH2 [Peptide 132] | 34.3 pM | 0.949 pM |
| HSQGS[αMeF]TSDVSKILDSKAAQD[αMeF]VQ[Aib]IAN-NH2 (not fully specified (residue 17)) [Peptide 111] | 2.09 pM | 1.92 pM |
| B1 | 462 pM | 93.8 pM |
| H[Aib]QGS[αMeF]TSDVSKILDSK([(PEG)2-(PEG)2-γGlu-Myristoyl])AAQD[αMeF]VQ[Aib]IINT-NH2 [Peptide 129] | 4.1 pM | 0.462 pM |
| B2 | 44 pM | 15.9 pM |
| H[Aib]QGS[αMeF]TSDVSKILDSK([(PEG)2-(PEG)2-γGlu-γGlu-Palmitoyl])AAQD[αMeF]VQ[Aib]IINT-NH2 [Peptide 125] | 6.68 pM | 0.575 pM |
| HSQGS[αMeF]TSDVSKILDSK([(PEG)2-(PEG)2-γGlu-γGlu-Palmitoyl])AAQD[αMeF]VQ[Aib]IINT-NH2 [Peptide 118] | 1.2 pM | 1.07 pM |
| B3 | 47.7 pM | 14.5 pM |
| B4 | > 26800 pM | 698 pM |
